Results taken from PMC6335420, “The cell cycle regulator GpsB functions as cytosolic adaptor for multiple cell wall enzymes” (Nature Communications, 2019).
“Also recorded” adds a separate entry of the source. Residues, ends and D or L forms follow the SMILES beside them. No end group written: not given here. *: point of attachment. X1 = CN(C)c1ccc2c(-c3ccc(N4C(=O)CC(*)C4=O)cc3C(=O)[O-])c3ccc(=[N+](C)C)cc-3oc2c1

B2: full-length BsGpsB (Bacillus subtilis GpsB) (natural protein, B. subtilis, UniProt P0CI74 1-98, looked up)
chain: MLADKVKLSAKEILEKEFKTGVRGYKQEDVDKFLDMIIKDYETFHQEIEELQQENLQLKKQLEEASKKQPVQSNTTNFDILKRLSNLEKHVFGSKLYD
notes: GpsB, Bacillus subtilis; purification of the full-length protein is not described here; source: E. coli BL21(DE3) used for recombinant protein production)
B5: SpGpsB_(4-63) (domain or fragment, S. pneumoniae R6, UniProt Q8DR57 4-63, looked up)
chain: IIFSAKDIFEQEFGREVRGYNKVEVDEFLDDVIKDYETYAALVKSLRQEIADLKEELTRK
notes: GpsB, Streptococcus pneumoniae R6, residues 4-63; also called slightly truncated form of the N-terminal domain of SpGpsB; source: E. coli, purified (Ni-NTA, TEV, Superdex 75); not shown: His6, N-terminal, cleaved

What was measured:
[1] = molecular target: T1, BsGpsB1-68Asp35Ala (Bacillus subtilis, UniProt P0CI74, D35A); assay: Fluorescence polarisation binding to BsGpsB1-68Asp35Ala; settings: FP, BsGpsB1-68Asp35Ala relative to wild-type BsGpsB1-68
T1 construct: Glu17Ala, Asp31Ala and Asp35Ala mutations were introduced to the BsGpsB1-68 expression construct plasmid; His6 (N, cleaved yes); made in house; host or cells: E. coli BL21(DE3)
Description: (§1) 75 the BsGpsB5-64:BsPBP11-17 complex.

[2] = molecular target: T2, BsGpsB1-68Tyr25Phe (Bacillus subtilis, UniProt P0CI74, Y25F); assay: Fluorescence polarisation binding to BsGpsB1-68Tyr25Phe; settings: FP, BsGpsB Tyr25Phe relative to wild-type BsGpsB1-68
T2 construct: correspond to BsGpsB1-68^Asp31Ala and BsGpsB1-68^Tyr25Phe mutants, respectively; His6 (N, cleaved yes); made in house; host or cells: E. coli BL21(DE3)
Description: as §1

[3] = Circular dichroism of PBP peptides (helicity); type: physicochemical; settings: CD, 222 nm, 4 °C, 20 mM sodium phosphate pH 7.3, 25 μM peptide
Protocol: CD spectra were recorded on a JASCO J-810 spectropolarimeter with a PTC-4235 Peltier temperature controller using 1 mm path length quartz cuvettes. For full wavelength scans a scan speed of 10 nm^−1min^−1 and a response time of 4 s were used, the final spectra were the average of at least four measurements. BsPBP1_1-32 CD spectra were recorded at 4 °C in a buffer of 20 mM sodium phosphate, pH 7.3 at a peptide concentration of 25 μM. Peptide helical contents were estimated from molar ellipticities at 222 nm using the equation helix = [θ]222 nm / (39,500(1–2.57/n))[78] where n is the number of residues in the peptide. LmPBPA1_1-15 CD spectra were analysed at 40 μM in 20 mM sodium phosphate buffer, pH 7.8, for samples containing 0, 40 and 60% trifluoroethanol (TFE). For samples containing 80% TFE, 5 mM sodium phosphate buffer, pH 7.8, was used. The CD spectra of BsGpsB1-68 proteins were measured at a concentration of 4.5 μM in a buffer of 20 mM sodium phosphate (pH 7.8) 150 mM NaCl. For thermal melt experiments, a response time of 8 s and scan rate of 1 °C^−1min^−1 were used. All thermal melts were reversible as CD spectra recorded before and after the melts in the wavelength range 200–240 nm could be superimposed.

[4] = molecular target: T3, BsGpsB1-68Glu17Ala (Bacillus subtilis, UniProt P0CI74, E17A); assay: Fluorescence polarisation binding to BsGpsB1-68Glu17Ala; settings: FP, BsGpsB1-68Glu17Ala relative to wild-type BsGpsB1-68
T3 construct: Glu17Ala, Asp31Ala and Asp35Ala mutations were introduced to the BsGpsB1-68 expression construct plasmid; His6 (N, cleaved yes); made in house; host or cells: E. coli BL21(DE3)
Description: as §1

[5] = molecular target: T4, BsGpsB1-68Asp31Ala (Bacillus subtilis, UniProt P0CI74, D31A); assay: Fluorescence polarisation binding to BsGpsB1-68Asp31Ala; settings: FP, BsGpsB Asp31Ala relative to wild-type BsGpsB1-68
T4 construct: Glu17Ala, Asp31Ala and Asp35Ala mutations were introduced to the BsGpsB1-68 expression construct plasmid; His6 (N, cleaved yes); made in house; host or cells: E. coli BL21(DE3)
Description: as §1

[6] = molecular target: B2; assay: fluorescence polarisation; GpsB protein titrated into fluorescently labelled peptide; 10 mM Tris.HCl pH 8.0, 250 mM NaCl, 0.1% reduced Triton X-100; fit to a 1:1 interaction model; settings: both partners purified
[7] = molecular target: T5, BsGpsB_(1-68) (B. subtilis, UniProt P0CI74 1-68); assay: as above; settings: both partners purified
T5 construct: GpsB, Bacillus subtilis, residues 1-68; also called N-terminal domain of BsGpsB; source: E. coli, purified (Ni-NTA, thrombin, size exclusion)
T5 sequence (looked up): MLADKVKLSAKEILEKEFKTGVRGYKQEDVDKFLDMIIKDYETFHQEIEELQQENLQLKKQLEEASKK

[8] = system: BsPBP1_17-914; assay: SPR binding to immobilised BsPBP1_17-914; design: species or system Bacillus subtilis; settings: chip coated with BsPBP1_17-914, even when 25 µM BsGpsB injected
Description: (§2) BsPBP1 and BsPBP1_17-914 were immobilised on the surface of a CM5 chip (GE Healthcare). For the BsPBP1/YrrSΔ13-16 titration 800 RUs of BsPBP1 were immobilised on the chip surface; for the BsPBP1/BsGpsB titration 1200 RUs of BsPBP1 were immobilised. YrrSΔ13-16, which lacks residues 13–16 in the cytoplasmic domain, was used in these experiments to minimise non-specific interactions with the chip matrix; binding of YrrSΔ13-16 to the reference surface was negligible and the deletion of residues 13–16 leaves the GpsB-binding motif intact. The YrrSΔ13-16 titration was carried out in single-cycle mode, without regenerating the surface between successive injections of protein, because harsh reagents were necessary for full surface regeneration.

[9] = molecular target: full-length BsPBP1; assay: SPR binding to immobilised full-length BsPBP1; design: species or system Bacillus subtilis
Description: as §2

[10] = molecular target: T6, full-length BsPBP1 (Bacillus subtilis PBP1) (B. subtilis, UniProt P39793 1-914); assay: SPR; BsPBP1 or BsPBP1_(17-914) immobilised on a CM5 chip (1200 RUs of BsPBP1); BsGpsB injected; 10 mM Tris.HCl pH 8.0, 250 mM NaCl, 0.1% reduced Triton X-100; settings: both partners purified
T6 construct: also called wild-type BsPBP1; source: E. coli, purified from membrane pellets (His select resin, thrombin, Superdex S200)
T6 sequence (looked up): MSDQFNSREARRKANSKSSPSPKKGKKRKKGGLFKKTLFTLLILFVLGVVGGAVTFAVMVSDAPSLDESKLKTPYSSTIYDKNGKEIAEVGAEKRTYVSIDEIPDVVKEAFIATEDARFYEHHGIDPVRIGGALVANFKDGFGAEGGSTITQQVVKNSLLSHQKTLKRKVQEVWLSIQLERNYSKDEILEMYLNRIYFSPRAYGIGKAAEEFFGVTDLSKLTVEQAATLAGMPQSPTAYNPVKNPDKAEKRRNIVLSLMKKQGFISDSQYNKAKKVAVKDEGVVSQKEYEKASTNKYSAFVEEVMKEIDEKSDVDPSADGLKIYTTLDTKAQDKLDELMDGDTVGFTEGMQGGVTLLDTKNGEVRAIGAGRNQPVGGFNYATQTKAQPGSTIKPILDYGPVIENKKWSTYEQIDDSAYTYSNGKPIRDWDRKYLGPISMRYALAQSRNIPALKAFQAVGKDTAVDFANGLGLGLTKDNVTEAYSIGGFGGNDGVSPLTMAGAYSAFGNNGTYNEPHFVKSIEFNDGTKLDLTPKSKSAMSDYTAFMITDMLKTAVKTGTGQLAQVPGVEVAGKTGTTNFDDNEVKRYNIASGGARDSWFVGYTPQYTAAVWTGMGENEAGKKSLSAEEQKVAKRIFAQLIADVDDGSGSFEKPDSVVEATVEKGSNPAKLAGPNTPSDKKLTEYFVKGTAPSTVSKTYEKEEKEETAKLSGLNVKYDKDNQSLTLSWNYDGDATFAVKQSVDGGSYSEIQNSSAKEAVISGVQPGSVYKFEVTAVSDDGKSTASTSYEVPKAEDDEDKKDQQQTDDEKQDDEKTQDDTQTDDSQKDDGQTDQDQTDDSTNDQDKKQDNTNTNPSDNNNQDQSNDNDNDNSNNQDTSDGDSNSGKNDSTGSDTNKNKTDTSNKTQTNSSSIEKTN

[11] = molecular target: T7, SpPBP2a_(23-45)^Arg31Lys, TAMRA-labelled (S. pneumoniae R6, UniProt Q8DNB6 23-45, Gly43 to cysteine | Arg31Lys, TAMRA (maleimide) label); assay: fluorescence polarisation; settings: both partners purified
T7 construct: also called SpPBP2a^Arg31Lys; source: E. coli, His-tagged MBP fusion purified (Ni-NTA), labelled, TEV-cleaved, ultrafiltration
T7 peptide: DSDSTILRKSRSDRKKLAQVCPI

[12] = molecular target: T8, SpPBP2a_(23-45)^Arg31Lys,Arg33Lys, TAMRA-labelled (S. pneumoniae R6, UniProt Q8DNB6 23-45, Gly43 to cysteine | Arg31Lys | Arg33Lys, TAMRA (maleimide) label); assay: fluorescence polarisation; settings: both partners purified
T8 construct: also called SpPBP2a^Arg31Lys,Arg33Lys; source: E. coli, His-tagged MBP fusion purified (Ni-NTA), labelled, TEV-cleaved, ultrafiltration
T8 peptide: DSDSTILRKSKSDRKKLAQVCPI

[13] = molecular target: Fluorescein-SpPBP2b1-17 (S. pneumoniae R6); assay: fluorescence polarisation; GpsB protein titrated into TAMRA- or fluorescein-labelled peptide; 10 mM Tris.HCl pH 8.0, 250 mM NaCl, 0.1% reduced Triton X-100; all data fitted to a 1:1 interaction model, Kd ± standard error
[14] = molecular target: B5; assay: crystal structure; co-crystallisation of GpsB N-terminal domain with PBP peptide, 1:5 molar ratio protein:peptide, room temperature; settings: both partners purified
[15] = molecular target: the molecule itself; assay: as above

T1 sequence (P0CI74 1-68 D35A): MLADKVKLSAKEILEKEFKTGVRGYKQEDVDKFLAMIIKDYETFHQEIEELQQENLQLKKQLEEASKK
T2 sequence (P0CI74 1-68 Y25F): as the sequence (P0CI74 1-68 D35A) above, with Y25F, A35D counted along it
T3 sequence (P0CI74 1-68 E17A): as the sequence (P0CI74 1-68 D35A) above, with E17A, A35D counted along it
T4 sequence (P0CI74 1-68 D31A): as the sequence (P0CI74 1-68 D35A) above, with D31A, A35D counted along it

CSCC[C@H](NC(=O)[C@H](CO)NC(=O)CN)C(=O)N[C@@H](C)C(=O)N[C@@H](CC(=O)O)C(=O)N[C@@H](CCC(N)=O)C(=O)N[C@@H](Cc1ccccc1)C(=O)N[C@@H](CC(N)=O)C(=O)N[C@@H](CO)C(=O)N[C@@H](CCCNC(=N)N)C(=O)N[C@@H](CCC(=O)O)C(=O)N[C@@H](C)C(=O)N[C@@H](CCCNC(=N)N)C(=O)N[C@@H](CCCNC(=N)N)C(=O)N[C@@H](CCCCN)C(=O)N[C@@H](C)C(=O)N[C@@H](CC(N)=O)C(=O)N[C@@H](CSC1CC(=O)N(c2ccc(-c3c4ccc(=[N+](C)C)cc-4oc4cc(N(C)C)ccc34)c(C(=O)[O-])c2)C1=O)C(=O)N[C@@H](CCCCN)C(=O)N[C@@H](CO)C(=O)N[C@@H](CO)C(=O)N1CCC[C@H]1C(=O)N[C@@H](CO)C(=O)N1CCC[C@H]1C(=O)N[C@@H](CCCCN)C(=O)N[C@@H](CCCCN)C(=O)NCC(=O)N[C@@H](CCCCN)C(=O)N[C@@H](CCCCN)C(=O)N[C@@H](CCCNC(=N)N)C(=O)N[C@@H](CCCCN)C(=O)N[C@@H](CCCCN)C(=O)NCC(=O)NCC(=O)O (some centres unmarked) [TAMRA-BsPBP11-32] (H-GSMADQFNSREARRKANC(X1)KSSPSPKKGKKRKKGG-OH)
reduction in affinity on GpsB mutation [1]: more than 8 fold | reduction in affinity on GpsB mutation [2]: more than 8 fold | helical residues corresponding to helical content [3]: ~ 5 residues | α-helical content ([3]; average of at least four measurements): 14% | reduction in affinity on GpsB mutation [4]: more than 8 fold | reduction in affinity on GpsB mutation [5]: more than 8 fold

B1: BsPBP1_(1-32), TAMRA-labelled at position 16 (peptide, UniProt P39793 1-32, looked up)
peptide: MSDQFNSREARRKANC(TAMRA (maleimide))KSSPSPKKGKKRKKGG
notes: PBP1, Bacillus subtilis, residues 1-32; also called BsPBPA1_(1-32); BsPBP1A_(1-32); source: E. coli, His-tagged MBP fusion purified (Ni-NTA), labelled, TEV-cleaved, ultrafiltration
binding result [6]: binds | binding result [7]: binds

B2
SPR binding (in words) [8]: does not interact; also recorded: no interaction | Kd ([9]; SPR, PBP1-coated chip, full-length GpsB data fit 1:1 only over limited concentration range (avidity), BsGpsB1-68 supports 1:1, peer review file, read-out: affinity / Kd by SPR): 0.7 µM | SPR binding (in words) ([9]; chip coated with wild-type BsPBP1 (1200 RU), submicromolar BsGpsB): submicromolar concentrations of BsGpsB bound to chips coated with the wild-type BsPBP1 | binding result [10]: binds

B3: SpGpsB_(1-63) (domain or fragment)
chain: MASIIFSAKDIFEQEFGREVRGYNKVEVDEFLDDVIKDYETYAALVKSLRQEIADLKEELTRK
notes: GpsB, Streptococcus pneumoniae R6, residues 1-63 (stop codon in place of Pro64); also called N-terminal domain of SpGpsB; wildtype SpGpsB_(1-63); source: E. coli, purified (Ni-NTA, thrombin, ammonium sulphate precipitation, gel filtration)
fold reduction in affinity against wild type [11]: 2 fold | fold reduction in affinity against wild type [12]: > 25 fold | Kd [13]: > 3600 µM

B4: SpPBP2a_(27-40) (peptide, UniProt Q8DNB6 27-40, looked up)
peptide: TILRRSRSDRKKLA
notes: PBP2a, Streptococcus pneumoniae, residues 27-40; also called 14-residue peptide of SpPBP2a; source: synthetic peptide
binding result [14]: binds

B5
binding result [15]: binds
